Laboratory results published in US20160326240A1 (published 2016).
Changes are numbered by the printed parent chain.

T1: hRGMa-His (human, UniProt Q96B86 48-422, limits assumed)
T1 construct: also called human RGMa (BIAcore); not shown: His tag
T1 sequence: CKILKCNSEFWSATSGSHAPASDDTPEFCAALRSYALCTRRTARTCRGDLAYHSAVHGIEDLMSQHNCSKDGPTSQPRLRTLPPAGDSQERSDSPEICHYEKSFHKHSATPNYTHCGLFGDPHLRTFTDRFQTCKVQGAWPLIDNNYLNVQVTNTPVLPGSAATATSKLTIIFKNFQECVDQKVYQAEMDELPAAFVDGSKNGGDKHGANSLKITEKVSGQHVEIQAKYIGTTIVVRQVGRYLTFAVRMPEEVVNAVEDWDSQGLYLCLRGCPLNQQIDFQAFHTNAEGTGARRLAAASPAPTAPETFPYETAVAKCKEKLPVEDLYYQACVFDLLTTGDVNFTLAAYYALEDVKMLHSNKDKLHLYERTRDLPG

T2: Cyno RGMa-His (cynomolgus monkey, UniProt Q9N0A6 54-431, limits assumed)
T2 construct: also called cynomolgus (cyno) monkey RGMa (BIAcore); not shown: His tag
T2 sequence (looked up): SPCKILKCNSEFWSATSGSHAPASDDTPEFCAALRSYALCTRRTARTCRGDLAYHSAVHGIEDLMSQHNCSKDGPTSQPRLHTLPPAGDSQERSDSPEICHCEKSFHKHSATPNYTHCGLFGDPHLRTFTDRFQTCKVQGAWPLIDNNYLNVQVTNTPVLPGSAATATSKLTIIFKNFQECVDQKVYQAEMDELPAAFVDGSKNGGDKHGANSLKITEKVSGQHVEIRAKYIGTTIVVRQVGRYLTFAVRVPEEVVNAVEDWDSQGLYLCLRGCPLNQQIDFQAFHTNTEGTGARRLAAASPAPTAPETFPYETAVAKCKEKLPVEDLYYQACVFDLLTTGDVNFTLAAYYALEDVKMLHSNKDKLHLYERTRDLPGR

T3: human RGMc (human, UniProt Q6ZVN8 36-400, limits assumed)
T3 construct: ELISA antigen for the yeast-derived antibodies; a human RGMc-Fc was used for negative selection but the ELISA antigen is not specified
T3 sequence (looked up): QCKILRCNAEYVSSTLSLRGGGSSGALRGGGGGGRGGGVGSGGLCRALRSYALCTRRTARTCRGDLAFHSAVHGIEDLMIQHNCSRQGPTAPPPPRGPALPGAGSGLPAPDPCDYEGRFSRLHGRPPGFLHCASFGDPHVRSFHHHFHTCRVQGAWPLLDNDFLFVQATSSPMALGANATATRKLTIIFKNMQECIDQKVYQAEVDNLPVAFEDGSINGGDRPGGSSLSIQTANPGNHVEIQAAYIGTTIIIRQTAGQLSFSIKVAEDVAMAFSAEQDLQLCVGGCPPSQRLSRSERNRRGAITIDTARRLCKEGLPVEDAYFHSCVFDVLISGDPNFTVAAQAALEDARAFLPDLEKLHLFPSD

T4: hRGMc-His (human, UniProt Q6ZVN8 36-400, limits assumed)
T4 construct: also called human RGMc; not shown: His tag
T4 sequence (looked up): T3 sequence (looked up)

B1: AE12-1-F (antibody, V domains shown)
VH: EVQLVQSGAEVKKPGASVKVSCKASGYTFTSHGISWVRQAPGQGLDWMGWISPYSGNTNYAQKLQGRVTMTTDTSTSTAYMELSSLRSEDTAVYYCARVGSGPYYYMDVWGQGTLVTVSS
VL: QSALTQPRSVSGSPGQSVTISCTGTSSSVGDSIYVSWYQQHPGKAPKLMLYDVTKRPSGVPDRFSGSKSGNTASLTISGLQAEDEADYYCFSYAGTDTLFGGGTKVTVL
notes: AE12-1 variant, Cys of VL CDR-L3 replaced; IgG
B2: AE12-1-K (antibody, V domains shown)
VH: B1 VH
VL: B1 VL with F91K
notes: AE12-1 variant; IgG
B3: AE12-1-H (antibody, V domains shown)
VH: B1 VH
VL: B1 VL with F91H
notes: AE12-1 variant; IgG
B4: AE12-1-V (antibody, V domains shown)
VH: B1 VH
VL: B1 VL with F91V
notes: AE12-1 variant; read as AE12-1-V from the order of the variants; IgG
B5: AE12-1-I (antibody, V domains shown)
VH: B1 VH
VL: B1 VL with F91I
notes: AE12-1 variant; IgG
B6: AE12-1-L (antibody, V domains shown)
VH: B1 VH
VL: B1 VL with F91L
notes: AE12-1 variant; IgG; also called AE-12-L
B7: AE12-1-Y (antibody, V domains shown)
VH: B1 VH
VL: B1 VL with F91Y
notes: AE12-1 variant; IgG
B8: AE12-23 (antibody, V domains shown)
VH: EVQLQESGPGLVKPSETLSLTCTVSGGSISGYYWSWIRQSPGKGLEWIGEIFHTGRTYYNPSLRSRLTISVDTSKNQFSLKLSSLTAADTAVYYCARDSAFGSFDYWGQGTLVTVSS
VL: DIRVTQSPSSLSASVGDRVTITCQANEDISIYLNWYQQRPGKAPKLLIYDASNLETGVPSRFSGSGSGTDFTFTISSLQPEDFATYYCQQYHTYPFTFGGGTKVDIKR
notes: kappa light chain
B9: AE12-13 (antibody, V domains shown)
VH: EVQLQESGAGLLKPSETLSLTCAVYGGSFSGYYWSWIRQPPGKGLEWIGEINHSGSTNYNPSLKSRVTISVDTSKNQFSLKLSSVTAADTAVYYCARDDGAGVFDLWGRGTLVTVSS
VL: DIQLTQSPSSLSASVGDGVTITCQASQDISNYLNWYQQKPGKAPKLLIYDASNLETGVPSRFSGSGSGTFFTLTINNLQPEDFATYYCQQSGNTPWTFGQGTKVEINR
notes: kappa light chain
B10: AE12-15 (antibody, V domains shown)
VH: EVQLVQSGAEVKEPGASVKVSCKASGYTFTDYYIQWVRQAPGHGLEWMGWINPKTGGTNYLQKFQGRVTMTRDTSTRTAYMELSSLRSDDTAFYYCVREDMNTVLATSWFDPWGQGTLVTVSS
VL: SYELTQPPSVSVSPGQTARITCSGNQLGHKFASWYQQKPGQSPVVVIYEDKKRPSGIPERFSGSNSGNTATLTISGTQAMDEADYYCQVWDVITDHYVFGTGTKVTVLG
notes: lambda light chain
B11: AE12-8 (antibody, V domains shown)
VH: EVQLLESGGGLVKPGGSLRLSCAASGFTFDDYAMHWVRQAPGKGLEWVSLISWDGGSTYYADSVKGRFTISRDNSKNSLYLQMNSLRAEDTALYYCAKDIPKVGGYSYGYGALGYWGQGTPVTVSS
VL: SYELTQPPSVSVAPGQTARITCGGNNIGDISVHWYQQKSGQAPMLVVHDDSDRPSGIPERFSGSNSGSSATLTISRVEAGDEADYHCQVWDSGSGHHVFGTGTKVTVL
notes: lambda light chain
B12: AE12-7 (antibody, V domains shown)
VH: EVQLVESGGGLVQPGGSLRLSCAASGFTSSSYAMTWVRQAPGKGLEWVSGISGSGESTYYADSVKGRFTISRDNSKNTLYLQMNSLRVEDTAIYYCARQGYGAHDYWGQGTLVTVSS
VL: not shown
notes: lambda light chain
B13: AE12-5 (antibody, V domains shown)
VH: EVQLVQSGAEVKKPGASVKVSCKVSGHSLSELTIHWVRQAPGKGLEWMGGFDPEDGRGTYAPNFRGRVTMTEDTSTDTAYMELSGLRSEDAAVYYCATLLGEYDSYFDLWGRGTLVTVSS
VL: DVVMTQSPDFQSVTPEDKVTITCRASQSIGSCLHWYQQKPDQSPKLLIKYASQSISGVPSRFSGSGSGTDFTLTINSLEAEDAATYYCHQSSSLPYTFGQGTKLEIK
notes: kappa light chain
B14: AE12-3 (antibody, V domains shown)
VH: EVQLVESGGGLVQPGRSLRLSCAASGFTFDDYAMHWVRQAPGKGLEWVAVISYDGSNKYYADSVKGRFTISRDNSKNTLYLQMNSLRAEDTAVYYCARERVYSSGKEGYYYGMDVWGQGTMVTVSS
VL: QSGLTQPPSVSAAPGQRVTISCTGSGSNIGAGYGVHWYQQLPATAPKILIYGDYNRPSGVPDRFSGSRSGTSASLTITGLQAEDEADYYCQSYDNSLRGVLFGGGTKLTVL
notes: lambda light chain
B15: AE12-2 (antibody, V domains shown)
VH: EVQLVQSGAEVKKPGASVKVSCKASGYTFTSYDINWVRQATGQGLEWMGWMNPNSGNTGYAQKFQGRVTMTRNTSISTAYMELSSLRSEDTAVYYCARSTSLSVWGQGTLVTVSS
VL: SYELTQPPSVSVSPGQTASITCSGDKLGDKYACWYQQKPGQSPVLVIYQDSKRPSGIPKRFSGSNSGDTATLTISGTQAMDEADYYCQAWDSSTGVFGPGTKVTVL
notes: lambda light chain

target: T1, hRGMa-His; assay: BIAcore

Row | Kd | koff | kon | Binder
1 | 1.4 nM | 3.9e-05 s⁻¹ | 27000 M⁻¹ s⁻¹ | B1
2 | 8.8 nM | 0.0003 s⁻¹ | 34000 M⁻¹ s⁻¹ | B2
3 | 3.8 nM | 0.00012 s⁻¹ | 32000 M⁻¹ s⁻¹ | B3
4 | 5.9 nM | 0.00015 s⁻¹ | 25000 M⁻¹ s⁻¹ | B4
5 | 4.5 nM | 0.00013 s⁻¹ | 30000 M⁻¹ s⁻¹ | B5
6 | 6.6 nM | 0.00025 s⁻¹ | 38000 M⁻¹ s⁻¹ | B6
7 | 0.6 nM | 1.3e-05 s⁻¹ | 22000 M⁻¹ s⁻¹ | B7

target: T2, Cyno RGMa-His; assay: BIAcore

Row | Kd | koff | kon | Binder
8 | 5.4 nM | 0.00025 s⁻¹ | 44000 M⁻¹ s⁻¹ | B1
9 | 9.3 nM | 0.00047 s⁻¹ | 51000 M⁻¹ s⁻¹ | B2
10 | 13.4 nM | 0.00063 s⁻¹ | 47000 M⁻¹ s⁻¹ | B3
11 | 9.2 nM | 0.00099 s⁻¹ | 110000 M⁻¹ s⁻¹ | B4
12 | 8.9 nM | 0.00087 s⁻¹ | 99000 M⁻¹ s⁻¹ | B5
13 | 10.1 nM | 0.00067 s⁻¹ | 62000 M⁻¹ s⁻¹ | B6
14 | 4.9 nM | 0.0002 s⁻¹ | 40000 M⁻¹ s⁻¹ | B7

target: T3, human RGMc; assay: ELISA

Row | binding result | Binder
15 | binds | B8
16 | binds | B9
17 | binds | B10

target: T1, hRGMa-His; assay: BIAcore; remark: another data set of the same source

Row | fold increased affinity vs parental AE12-1 | Binder
18 | 5 fold | B1
19 | ≥ 10 fold | B7

target: T4, hRGMc-His; assay: hRGMc-His ELISA

Row | binding result | Binder
20 | binds | B11
21 | binds | B12

target: T4, hRGMc-His; assay: BIAcore binding

Row | binding result | Binder
22 | no binding | B1
23 | no binding | B2
24 | no binding | B3
25 | no binding | B4
26 | no binding | B5
27 | no binding | B6
28 | no binding | B7

target: T4, hRGMc-His; assay: direct binding ELISA (hRGMc-His)

Row | binding result | Binder
29 | no binding (tested: 100 nM) | B13
30 | no binding (tested: 100 nM) | B14
31 | no binding (tested: 100 nM) | B15
